Source: US20240101959A1, “USE OF IL-2R-BETA-GAMMA AGONIST PEPTIDES IN CELL MANUFACTURING” (MEDIKINE, INC., priority 2022, published 2024)
Positions of bridges follow the written chain, without caps; N, C: chain ends. No end group written: not given here.

T1: hu-IL-2Rβ subunit (human, UniProt P14784 27-240, limits assumed)
T1 construct: also called human interleukin-2 receptor subunit β; CD122
T1 sequence (looked up): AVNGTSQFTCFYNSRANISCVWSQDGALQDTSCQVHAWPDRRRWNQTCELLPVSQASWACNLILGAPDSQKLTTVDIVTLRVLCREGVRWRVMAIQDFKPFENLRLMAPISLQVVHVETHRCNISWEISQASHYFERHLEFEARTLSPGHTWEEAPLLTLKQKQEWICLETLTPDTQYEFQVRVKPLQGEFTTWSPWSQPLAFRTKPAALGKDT

B1: SEQ ID NO 243 (peptide)
peptide: YLNFNPCWTAQLGELCDLASGE
B2: SEQ ID NO 229 (peptide)
peptide: WKPCWRAQLGELCDLELGPSER
B3: SEQ ID NO 252 (peptide)
peptide: MLGEWLCEMDQLGYLCYLDHGD
B4: SEQ ID NO 239 (peptide)
peptide: AYRIYPCWKAQLGELCDLDNAD
B5: SEQ ID NO 231 (peptide)
peptide: YWPCSMASLGELCDLEWQGRLP
B6: SEQ ID NO 247 (peptide)
peptide: QTGSYPCWIAHLGELCDLEGSA
B7: SEQ ID NO 233 (peptide)
peptide: WYPCWMAQLGELCDHEWPSYGA
B8: SEQ ID NO 235 (peptide)
peptide: QKGFLPCWRAQLGQLCDMESQY
B9: SEQ ID NO 246 (peptide)
peptide: HPVRYPCWVAQLGELCDLENGN
B10: SEQ ID NO 224 (peptide)
peptide: SKPCWLAQLGDLCDFDWTAADH
B11: SEQ ID NO 339 (peptide)
peptide: WYPCWIARVGELCDLEEGPVNR
B12: SEQ ID NO 226 (peptide)
peptide: WTPCWIAHLGDLCDLEPQDDTD
B13: SEQ ID NO 238 (peptide)
peptide: RRSWYPCRIAQLGELCDLDPRV
modifications: disulfide 7-16 (inferred)
B14: SEQ ID NO 95 (peptide)
peptide: WLPCWIASLGELCDLDTGKRQG
B15: SEQ ID NO 222 (peptide)
peptide: WYSCGKAQLGELCDLDVESQPG
B16: SEQ ID NO 228 (peptide)
peptide: WKPCWMAALGELCDLERSVGKV
B17: SEQ ID NO 242 (peptide)
peptide: SRFWQPCWMAQLGELCHLDPQM
B18: SEQ ID NO 250 (peptide)
peptide: MGTGWQNYCRYAQLGELCLL
B19: SEQ ID NO 338 (peptide)
peptide: TNNFYPCWLAKLGDLCDFDDLN
modifications: disulfide 7-16 (inferred)
B20: SEQ ID NO 234 (peptide)
peptide: MGSWLPCWMAQLGDLCDVEGGM
B21: SEQ ID NO 241 (peptide)
peptide: QPAWLPCWLAQLGELCDLGTGA
B22: SEQ ID NO 232 (peptide)
peptide: WYPCYMASLGELCDLQSSISPR
B23: SEQ ID NO 251 (peptide)
peptide: WYPCGVAQPGDLCDLE
B24: SEQ ID NO 227 (peptide)
peptide: WKPCFIASLGELCDLDQGSVEV
B25: SEQ ID NO 94 (peptide)
peptide: AGDWLPCWMAELGELCDLEGPT
B26: SEQ ID NO 230 (peptide)
peptide: FFPCWMGQLGDLCDLEVRSMQK
B27: SEQ ID NO 236 (peptide)
peptide: GSGWQPCWMADLGELCDLDNEK
B28: SEQ ID NO 253 (peptide)
peptide: WDGWECGMDHDGWVCEFWGE
B29: SEQ ID NO 240 (peptide)
peptide: QRNSFPCWLAQLGDLCDLGDWA
B30: SEQ ID NO 343 (peptide)
peptide: RREWYPCWIAQVGELCDLPLI
B31: SEQ ID NO 237 (peptide)
peptide: WRRWYPCWMAQLGELCDLDQWT
B32: SEQ ID NO 87 (peptide)
peptide: WYPCWLAQLGDLCDLD
B33: SEQ ID NO 369 (peptide)
peptide: WYPCWLAHLGELCDLE
B34: SEQ ID NO 384 (peptide)
peptide: WYPCWMARMGELCDLE
B35: SEQ ID NO 341 (peptide)
peptide: WYPCWIAHLGELCDLE
B36: SEQ ID NO 142 (peptide)
peptide: WYPCWIAKLGELCDLE
B37: SEQ ID NO 395 (peptide)
peptide: WYPCWLAHLGELCDLA
B38: SEQ ID NO 474 (peptide)
peptide: WYPCWMAHLGELCDLE
B39: SEQ ID NO 130 (peptide)
peptide: WYPCWLAQLGELCDLD
B40: SEQ ID NO 352 (peptide)
peptide: WYPCWIAQLGELCDLV
B41: SEQ ID NO 388 (peptide)
peptide: WHPCWIAHLGELCDLE
B42: SEQ ID NO 472 (peptide)
peptide: WYPCWVAKLGELCDLE
B43: SEQ ID NO 554 (peptide)
peptide: WYPCWLAQVGELCDLD
B44: SEQ ID NO 387 (peptide)
peptide: RYPCWIAQLGELCDLD
B45: SEQ ID NO 462 (peptide)
peptide: WYPCWVAQLGELCDLE
B46: SEQ ID NO 376 (peptide)
peptide: WYPCWMAQLGELCDMD
modifications: disulfide 4-13 (inferred)
B47: SEQ ID NO 137 (peptide)
peptide: WYPCWMARLGELCDLE
B48: SEQ ID NO 148 (peptide)
peptide: WYPCWIAQLGELCDLE
B49: SEQ ID NO 147 (peptide)
peptide: WHPCWIAQLGELCDLE
B50: SEQ ID NO 361 (peptide)
peptide: WYPCWLAQLGELCDLD
B51: SEQ ID NO 248 (peptide)
peptide: TGWWYPCWMAQLGELCDLQQT
modifications: disulfide 7-16 (inferred)
B52: SEQ ID NO 340 (peptide)
peptide: AVEFYPCWLARIGELCDLVEP
B53: SEQ ID NO 244 (peptide)
peptide: STGWYPCWIAEFGELCDLVKPH
B54: SEQ ID NO 342 (peptide)
peptide: WYPCWIARVGELCDME
modifications: disulfide 4-13 (inferred)
B55: SEQ ID NO 553 (peptide)
peptide: WYPCWIARVGELCDLE
B56: SEQ ID NO 245 (peptide)
peptide: AHWSQPCWTAQLGELCDLDMGD
B57: SEQ ID NO 93 (peptide)
peptide: WYPCWMAQLGELCDLQTMGYSH
B58: SEQ ID NO 225 (peptide)
peptide: WFPCWMAQLGDLCELEPDSVPA
B59: SEQ ID NO 249 (peptide)
peptide: DLWQPCWMARLGELCDLKG
B60: SEQ ID NO 337 (peptide)
peptide: WYPCWIAQLGELCDLDAKGQRR
B61: SEQ ID NO 223 (peptide)
peptide: YVPCYMARLGELCELEANRPGQ

Biological target: T1, hu-IL-2Rβ subunit
Assay: phage ELISA competition assay

IC50, < 100 µM:
B1
B2
B3
B4
B5
B6
B7
B8
B9
B10
B11
B12
B13
B14
B15
B16
B17
B18
B19
B20
B21
B22
B23
B24
B25
B26
B27
B28
B29
B30
B31
B32
B33
B34
B35
B36
B37
B38
B39
B40
B41
B42
B43
B44
B45
B46
B47
B48
B49
B50
B51
B52
B53
B54
B55
B56
B57
B58
B59
B60
B61
